From doi:10.1101/638320, “Analyzing the weak dimerization of a cellulose binding module by sedimentation velocity experiments” (bioRxiv, 2019)

Legend:
[1] = target: the molecule itself; assay: AUC; loading concentration 0.50 mg/mL (27.07 uM)
[2] = target: the molecule itself; assay: AUC; loading concentration 0.70 mg/mL (37.90 uM)
[3] = target: the molecule itself; assay: AUC; sedimentation velocity, absorbance at 280 nm, 50 000 rpm, 20 °C, PBS (137 mM NaCl, 2.7 mM KCl, 10 mM Na2HPO4, 1.8 mM KH2PO4, pH 7.35), 0.05 to 0.7 g/L; UltraScan III (2DSA, GA, GAMC, van Holde-Weischet; KD by discrete model genetic algorithm); dimer to monomers

B1: CBM_(CipA), cellulose binding module of the cellulosome anchoring protein CipA (domain or fragment, Clostridium thermocellum)
chain: MGNLKVEFYNSNPSDTTNSINPQFKVTNTGSSAIDLSKLTLRYYYTVDGQKDQTFWCDHAAIIGSNGSYNGITSNVKGTFVKMSSSTNNADTYLEISFTGGTLEPGAHVQIQGRFAKNDWSNYTQSNDYSFKSASQFVEWDQVTAYLNGVLVWGKEPLE
notes: abstract: Clostridium thermocellum, introduction: Cellulomonas fimi; differs from PDB 1NBC by the polyHis tag and two amino acids at the beginning and the end; Calculated monomer mass 18469 Da; Gene codon optimised for E. coli, in a modified pET28a(+); also called CMB_(CipA); source: E. coli BL21 (DE3), purified (heating to 70 °C, IMAC on HisTrap, desalting); not shown: His6, C-terminal, kept
In the case of B1, the Kd [1] is reported as 93.9 µM, the Kd [2] is reported as 80.5 µM and the Kd [3] is reported as about 87 µM. For the same protein, the “stoichiometry N” value [3] was 2.
